Biological target: T1, SNF4-pACTII (unrelated fusion with Gal4 activation domain) (yeast, UniProt P12904)
T1 sequence: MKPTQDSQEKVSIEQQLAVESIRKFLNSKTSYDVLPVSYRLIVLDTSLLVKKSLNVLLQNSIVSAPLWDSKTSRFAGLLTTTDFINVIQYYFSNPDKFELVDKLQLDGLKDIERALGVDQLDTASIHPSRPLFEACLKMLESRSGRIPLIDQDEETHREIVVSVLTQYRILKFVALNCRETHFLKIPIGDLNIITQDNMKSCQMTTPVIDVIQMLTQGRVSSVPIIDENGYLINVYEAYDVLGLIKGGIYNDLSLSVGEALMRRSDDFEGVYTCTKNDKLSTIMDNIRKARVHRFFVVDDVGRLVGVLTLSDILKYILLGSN
Assay: yeast two-hybrid, HIS3 reporter, strain YCB5.1
Description: Figure 1: FIG. 1: Investigation of the MORT1 transcript isoforms with MACHα1 C360S in a yeast two-hybrid system: Activation of the HIS3 reporter gene. Each MORT1 transcript isoforms was expressed as a fusion protein with Gal4 DNA binding domain. MACHα1 C360S was expressed as a fusion protein with the Gal4 activation domain. Yeast strains were plated at a cell density of 5 ×10^1, 5 ×10^2, 5 ×10^3, 5 ×10^4 and 5 ×10^5 (left to right within a plate. Sibling isolates from yeast strains expressing a MORT1 transcript isoform with MACHα1 C360S fusion proteins were plated on histidine deficient media containing 0, 20 or 40 mM 3-aminotriazole (3-AT). The top row of plates (1) contained yeast strains that express two fusion proteins as follows: YCB5: MORT1-pAS1/MACHα1 C360S-pACTII; YCB9: MORT1Δ21-pAS1/MACHα1 C360S-pACTII; YCB16: MORT1 G173A-pAS1/MACHα1 C360S-pACTII. The bottom row of plates (3) contains negative control strains which express only the MORT1 transcript isoform fusion protein with a recombinant vector containing nonrelated heterologous DNA, as follows: YCB5.1: MORT1-pAS1/SNF4-pACTII; YCB9.1: […]. […] Each MORT1 transcript isoforms was expressed as a fusion protein with Gal4 DNA binding domain. MACHα1 C360S was expressed as a fusion protein with the Gal4 activation domain. […]

B1: MORT1 fusion protein with Gal4 DNA binding domain (MORT1-pAS1) (other)
chain: MDPFLVLLHSVSSSLSSSELTELKFLCLGRVGKRKLERVQSGLDLFSMLLEQNDLEPGHTELLRELLASLRRHDLLRRVDDFEAGAAAGAAPGEEDLCAAFNVICDNVGKDWRRLARQLKVSDTKIDSIEDRYPRNLTERVRESLRIWKNTEKENATVAHLVGALRSCQMNLVADLVQEVQQARDLQNRSGAMSPMSWNSDASTSEAS
B1: no binding.
